Among the data in publication PMC10045489 (2023) are Kd values, retold here.

The assay deals with full-length His-tagged SARS-CoV-2 spike protein (wild-type) (SARS-CoV-2, UniProt P0DTC2). The assay can be described thus: BLI.

B1: Nb20 nanobody (VHH)
VHH: QVQLVESGGGLVQAGGSLRLSCAVSGAGAHRVGWFRRAPGKEREFVAAIGASGGMTNYLDSVKGRFTISRDNAKNTIYLQMNSLKPQDTAVYYCAARDIETAEYIYWGQGTQVTVSS
For the molecule B1, the Kd was ~0.72 nM.

B2: ab8 nanobody (VHH)
VHH: QVQLVESGGGLVQPGGSLRLSCAASGFTFDDYAMSWVRQAPGKGLEWIGRMYNNGRTSYNPSLKSLVTISRDNSKNTLYLQMNSLRAEDTATYYCARDNLGYRPSENLYGMDVWGQGTQVTVSS
Turning to B2, the Kd was ~120 nM.

B3: H11-H4 nanobody (VHH)
VHH: QVQLVESGGGLMQAGGSLRLSCAVSGRTFSTAAMGWFRQAPGKEREFVAAIRWSGGSAYYADSVKGRFTISRDKAKNTVYLQMNSLKYEDTAVYYCAQTHYVSYLLSDYATWPYDYWGQGTQVTVSS
Regarding B3, the equilibrium dissociation constant (Kd) is ~61 nM.

Broadly, the Kd is a measure of binding affinity in units of concentration.
